Where a chain is given by its changes, count along the chain named.

B1: P1AE0289, CEA (A5B7) Fab (parental murine antibody) (Fab, V domains shown)
VH: EVKLVESGGGLVQPGGSLRLSCATSGFTFTDYYMNWVRQPPGKALEWLGFIGNKANGYTTEYSASVKGRFTISRDKSQSILYLQMNTLRAEDSATYYCTRDRGLRFYFDYWGQGTTLTVSS
VL: QTVLSQSPAILSASPGEKVTMTCRASSSVTYIHWYQQKPGSSPKSWIYATSNLASGVPARFSGSGSGTSYSLTISRVEAEDAATYYCQHWSSKPPTFGGGTKLEIK
B2: P1AE4135, Fab derived from P1AE2164 (Fab, V domains shown)
VH: EVQLLESGGGLVQPGGSLRLSCAASGFTFTDYYMNWVRQAPGKGLEWLGFIGNKANGYTTEYSASVKGRFTISRDKSKNTLYLQMNSLRAEDTATYYCTRDRGLRFYFDYWGQGTTVTVSS
VL: QTVLTQSPATLSLSPGERATLSCRASSSVTYIHWYQQKPGSSPKSWIYATSNLASGIPARFSGSGSGTDYTLTISSLEPEDFAVYYCQHWSSKPPTFGQGTKLEIK
B3: P1AE4140, Fab derived from P1AE2177 (Fab, V domains shown)
VH: B2 VH with L48V, K76N, T95V
VL: B2 VL with Q1E, T2I, S41Q, S42A, K44R, Y70F
B4: P1AE4142, Fab derived from P1AE2181 (Fab, V domains shown)
VH: B2 VH with L48V, T95V, T99A
VL: B2 VL with Q1E, T2I, Y70F
B5: P1AE4137, Fab derived from P1AE2166 (Fab, V domains shown)
VH: B2 VH
VL: B2 VL with Q1E, T2I, Y70F
B6: P1AE4136, Fab derived from P1AE2165 (Fab, V domains shown)
VH: B2 VH
VL: B2 VL with S41Q, S42A, K44R, S45L, W46L, Y70F
B7: P1AE4143, Fab derived from P1AE2182 (Fab, V domains shown)
VH: B2 VH with L48V, T95V, T99A
VL: B2 VL with Q1E, T2I, S41Q, S42A, K44R, Y70F
B8: P1AE4139, Fab derived from P1AE2176 (Fab, V domains shown)
VH: B2 VH with L48V, K76N, T95V
VL: B2 VL with Q1E, T2I, Y70F
B9: P1AE4138, Fab derived from P1AE2167 (Fab, V domains shown)
VH: B2 VH
VL: B2 VL with Q1E, T2I, S41Q, S42A, K44R, Y70F
B10: P1AE4141, Fab derived from P1AE2179 (Fab, V domains shown)
VH: B2 VH with L48V, T95V, T99A
VL: B2 VL

Sequence of human CEA (hu N(A2-B2)A-avi-His B) (human) (P06731 whole entry): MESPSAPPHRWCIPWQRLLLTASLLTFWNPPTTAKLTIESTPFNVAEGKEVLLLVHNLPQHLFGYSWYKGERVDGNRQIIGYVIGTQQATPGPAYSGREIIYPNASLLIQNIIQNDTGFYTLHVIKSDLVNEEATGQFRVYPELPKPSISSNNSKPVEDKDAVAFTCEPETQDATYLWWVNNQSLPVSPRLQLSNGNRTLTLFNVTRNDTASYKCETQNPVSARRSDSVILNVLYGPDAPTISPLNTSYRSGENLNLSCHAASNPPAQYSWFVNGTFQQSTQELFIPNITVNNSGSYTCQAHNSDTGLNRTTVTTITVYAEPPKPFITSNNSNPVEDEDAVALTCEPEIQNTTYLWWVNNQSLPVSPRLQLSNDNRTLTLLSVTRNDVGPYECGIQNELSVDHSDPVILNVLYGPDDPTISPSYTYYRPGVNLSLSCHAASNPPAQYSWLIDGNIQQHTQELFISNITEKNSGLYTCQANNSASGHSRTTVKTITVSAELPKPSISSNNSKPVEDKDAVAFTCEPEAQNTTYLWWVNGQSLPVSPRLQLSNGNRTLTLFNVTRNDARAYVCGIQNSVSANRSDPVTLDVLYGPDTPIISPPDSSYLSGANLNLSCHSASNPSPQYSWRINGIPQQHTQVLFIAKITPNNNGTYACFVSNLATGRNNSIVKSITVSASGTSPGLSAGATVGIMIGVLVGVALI

This test has as its target human CEA (hu N(A2-B2)A-avi-His B) (human). Nature of the test: SPR (Biacore T200), hu N(A2-B2)A-avi-His B immobilised, Fab as analyte, 1:1 Langmuir fit. In general terms: In SPR one partner is held on a chip, and binding of the other changes the refractive index at the surface.
The term Kd denotes the equilibrium constant for the complex coming apart. Read a low Kd as tighter binding. B1 showed a Kd of 0.559 nM. This counts as sub-nanomolar.
With B2 the figure was 1.7 nM; with B3, 7.62 nM.
With B4 the figure was 2.64 nM; with B5, 11.3 nM.
To B6 belongs 1.25 nM; to B7, 2.92 nM.
Turning to B8, the Kd was 7.58 nM.
B9 yielded a dissociation constant Kd of 1.47 nM.
With B10 the figure was 1.83 nM.

These data come from patent US20220098305A1.
